The source of these data is patent publication US20170246252A1.

For this test, the target named is endogenous mIL-10 receptors (R1 and R2) on MC/9 mouse mast cells (mouse) (UniProt Q61727). Kind of test: cell-based or functional assay.
Sequence of UniProt Q61727 (Q61727 17-575, chain 1 of 2): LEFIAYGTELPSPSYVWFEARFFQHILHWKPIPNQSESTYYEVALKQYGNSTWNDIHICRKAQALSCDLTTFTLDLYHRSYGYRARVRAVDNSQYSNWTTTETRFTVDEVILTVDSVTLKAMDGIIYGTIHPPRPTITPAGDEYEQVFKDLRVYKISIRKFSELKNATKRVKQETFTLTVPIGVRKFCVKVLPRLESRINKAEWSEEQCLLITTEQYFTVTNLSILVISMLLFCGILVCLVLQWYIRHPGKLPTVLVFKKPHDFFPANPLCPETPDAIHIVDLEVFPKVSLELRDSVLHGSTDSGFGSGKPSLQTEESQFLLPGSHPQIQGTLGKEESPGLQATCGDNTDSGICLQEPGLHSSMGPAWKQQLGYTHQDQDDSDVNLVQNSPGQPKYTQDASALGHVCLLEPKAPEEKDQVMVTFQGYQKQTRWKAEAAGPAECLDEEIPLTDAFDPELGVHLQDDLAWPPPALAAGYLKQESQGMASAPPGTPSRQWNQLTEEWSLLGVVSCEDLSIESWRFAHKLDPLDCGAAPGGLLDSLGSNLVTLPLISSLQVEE
Sequence of UniProt Q61727 (Q61190 20-349, chain 2 of 2, further chain): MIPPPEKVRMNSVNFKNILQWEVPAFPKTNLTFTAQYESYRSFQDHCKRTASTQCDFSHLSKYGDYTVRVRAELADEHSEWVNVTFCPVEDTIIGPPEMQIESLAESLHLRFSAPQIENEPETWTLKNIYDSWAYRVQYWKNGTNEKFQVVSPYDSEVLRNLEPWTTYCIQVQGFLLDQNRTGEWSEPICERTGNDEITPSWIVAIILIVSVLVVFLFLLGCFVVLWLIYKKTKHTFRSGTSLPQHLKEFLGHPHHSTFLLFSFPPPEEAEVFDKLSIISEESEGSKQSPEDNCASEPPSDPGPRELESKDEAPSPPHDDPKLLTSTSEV

With “Murine IL-10 (from UniProt P18893 19-178) (ligand)”, the EC50 (ng/mL) in MC/9 Assay (proliferation with mIL-4 co-stimulation, Alamar Blue) was found to be 0.571 ng/mL.

Substance “PEG-mIL-10 (from UniProt P18893 19-178) (ligand)” came in with an EC50 (ng/mL) in MC/9 Assay (proliferation with mIL-4 co-stimulation, Alamar Blue) of 4.04 ng/mL and a specific activity in the MC/9 bioassay relative to mIL-10 of 7 fold lower.
